Assay [1] addresses SARS-CoV-2 NTD protein with D7-tag (SARS-CoV-2 (NC_045512.2, Wuhan-Hu-1), UniProt P0DTC2). The experiment in a line: ELISA.
Assay [2] deals with SARS-CoV-2 S2 subdomain protein with D7-tag (SARS-CoV-2 (NC_045512.2, Wuhan-Hu-1), UniProt P0DTC2). The assay can be described thus: ELISA.
Assay [3] concerns the target T1, SARS-CoV-2 S ectodomain with D7-tag (SARS-CoV-2, UniProt P0DTC2). The assay can be described thus: cell-based or functional assay.
The target of assay [4] is SARS-CoV-2 wild-type RBD protein (BLI) (SARS-CoV-2, UniProt P0DTC2). The experiment in a line: BLI.
The target in assay [5] is SARS-CoV RBD protein (BLI) (SARS-CoV (isolate of the bought protein …, UniProt P59594)). The assay can be described thus: BLI. In general terms: BLI is a label-free optical method that tracks binding on a fibre tip over time.
Assay [6] deals with T1, SARS-CoV-2 S ectodomain with D7-tag. The experiment in a line: ELISA. Background: In an ELISA, binding on a coated surface is turned into a signal by an enzyme label.
In assay [7] the target is SARS-CoV-2 S1 subdomain protein with D7-tag (SARS-CoV-2 (NC_045512.2, Wuhan-Hu-1), UniProt P0DTC2). The experiment in a line: ELISA.
The target of assay [8] is SARS-CoV-2 RBD protein with D7-tag (SARS-CoV-2, UniProt P0DTC2). The assay can be described thus: ELISA.

B1: CYFN1006-1 (antibody, V domains shown)
VH: QMQLVQSGAEVKKPGESLKISCKGSGYTFSYYWIGWVRQMPGKGLEWMGIIYPGDSDTRYSPSFQGQVTISADKSISTAYLHWSSLKASDTAMYYCARQGDLGDWILLGYWGQGTLVTVSS
VL: QSALTQPRSVSGSLGQSVTISCTGISSDVGGDNYVSWYQQHPGKAPKLMIYDVSKRPSGVPDRFSGSKSGNTASLTISGLQADDEADYYCCSYALSRVVFGGGTMLTVL
As a reminder, the Kd is a measure of binding affinity in units of concentration. The low end stands for tighter binding, the high end for weaker binding. Turning to B1, the binding result in assay [1] and in assay [2] was “no binding” throughout. The “neutralisation of SARS-CoV-2, IC50” value in assay [3] was less than 5 ng/mL. The Kd in assay [4] is less than 1 pM; in assay [5] it was 32.4 nM.

B2: CYFN1006-2 (antibody, V domains shown)
VH: QMQLVQSGAEVKKPGESLKISCKGSGYTFSYYWIGWVRQMPGKGLEWMGIIYPGDSDTRYSPSFQGQVTISADKSISTAYLHWSSLKASDTAMYYCARQGDLGDWILLGYWGQGTLVTVSS
VL: QSALTQPPSASGSPGQSVTISCTGASSDVGGYNYVSWYQQHPGKAPKLMIYEVNKRPSGVPDRFSGSKSGNTASLTISGLQADDEADYYCCSYALSRVVFGGGTMLTVL
Turning to B2, the binding result is “binds” in assay [6]; “binds” in assay [7]; “binds” in assay [8]; “no binding” in assay [1]; “no binding” in assay [2]; “binds” in assay [4].

Values taken from PMC11885566 (Communications Biology, 2025).
